Experimental data from the domain aggregation screens of Martell et al. (2025).

Assay: soluble fraction after stress (log2 fold change); higher = more stays soluble; pooled small domains, quantitative proteomics
Conditions: stress: 50 degC
Method in brief: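 Quantitative proteomics served as the high-throughput read-out for pooled custom libraries of small protein domains. Each was stressed at 50°C. Aggregation propensity is expressed as the base-two log fold change in soluble protein after stress. A higher value means a larger share of the protein remains in solution.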

Sequence | soluble fraction (log2)
HMNQSEMIGSRLKEERLQQKLTLKQLSEKVGLSIGYLSQVERGYGTLSLSALKKLSSALGLEMSTFFD | -0.992
HMNNTIKFSVDIKNSGKRLDIFLSENVTQYTRSYLKRLIENSHVKLNNKILNSPSTKVKFQDQIIINNIE | -1.91
HMFNRAVSDNEALQVREHFDRDATVMSLAKKYGVSTVTIQRILLGKTYRNVGGPLFDKATLKKRMGN | -0.66
HMLHPLLWAVDEPTPVTVRTRPEYVPDVVRWLMQPESQREHDGVVDLRYTVTHRAAFRSRIYVLGTRVTIP | -0.112
HMKEPQLGPVRKWSDQTGNFGIEAQFVKREGDNILLKRADQRTISIPLEKLSDADQEHLKQEEQKQAME | -0.138
HMAPTADSVPFVIRSVVGGAQPFIVLEDGSKLLVGGVYRKYRLVAVENTRIIFEGPRTAIVT | -1.33
HMSHYEYKVGDRVNLLDYDDFGILYKEKDNFYNVVVYYNGEFVEVNVKRITLEVAAKELYPEGYDLSTLFV | -4.14
HMLLFNVADIVKRAKRVLNFKTDAELAAYLGVSRPTLSNWIARNGIDFPLLLEKLKEIDYNWLLVGKGKPE | -2.33
HMGIYDQAAAAYIEFVESKNRAPKWNELIDALYKENGKDWIDRSTLHGLLRRKEFQELLAQKRKEHLV | -0.184
HMGETPEILRDWEAAQNAVNDMLSKYAPGGYMGKIIYPLLTPLKERLEAGERTPDLYNAIVEAT | 0.0804
HMQISDEAALLAIVDRVIADNQGPLANYLGGKQSLLGWFVGQVMRATRGQAIPAVVNRLVGERLAAQREE | -0.627
HMGSEISLNAFNIPKGSVSVTAGGTKLVENQDYTVDYTLGRIKILNEGILNSGVPIQVNFENNTLFN | 0.0829
HMVEGVSLVEIYVDENSKYNGKLLSEIPKKENTLVIMIQRGEQVIIPHGNIRLESGDMLVVSKTEI | -0.649
HMTKYEGLSLDLIIDGVVITHNLKLAKLDMNWLLDRLKENGWDNPKDIFYAYIDTAGNFRFQPKLKASRTR | 0.202
HMRLADHVVEKLLALVQDRGLQPGQKLPAERQLAEELGVSRTSVREAIQKLTSQGVLSARRGDGTYLQS | 0.0556
HMGRTKEEIFNILKERIVTLQYEPGKILNEIELSEEFEVSRTPIRTVFQQLEAVKLVSIVPRYGVQVA | -1.27
HMLQSGSDYLIEQVRMYTATGQREYMDNYFEELNTTRRRENALEYFAEHYGDNDAFTLLKSAMTTSQN | -0.428
HMEQIGSIIKDIRKKNNLTQNEFASILGVTFQAVSKWENDKSIPDITILKDISNKFNVDLNYLISG | -0.0472
HMPVSDLQSALRNTLSKGDATDPAFRQRVYRAAMDALERATGSESDPQRRSEQKQRLIAVIRDMEASYRR | 0.277
HMNPSVSSDERILLQKALGILSAEQKQIVMLHAVAGIKHREIAKLLDMPIATVLSKYSRAVNKLRHAMEA | -0.423
HMFDGVAAGKPAILDALEDAGGFLPLNSKSSVEEIQASFSFSKRVFKQLIGMLYKERKIVITDDGIRLAD | -0.352
HMLRLLEIIAGNEVSKEINSQVIKYYKALKNKKIEEINNLTPSYNKLIISFDLKKKNFREMKKIIEDISIN | -0.162
HMEKVDAISQSILDVLKKNNGYLAVTDKSDPDEIYGLFQISKKTFKKAIGSLYRDRLISIEEEGIRLR | 0.116
HMSKYLAFTVKKNDELLPFIEKALNGISHTKAKAILANGGAMVNKNTITQYNYPLTPGMTVEISRH | 0.131
HMKTKKYKGVYKDSKGKIYFQIELGVDPITGKRIQKKGRKNQQGLPFNSFKEAYEEILRLKHEFVNSTIN | -2.69

Sequence | soluble fraction (log2)
HMSRMGDSIKSLRSRNNMSQDALAEKLNVTRQAISNWENSKTQPDADTLKNLGIIFNVTVDEIINNDF | 0.0528
HMPNLAAAIGARVTIRLREASGGFRDIVGTLQRFGDGVNELLNSKGQIISFSEDEIAIWREIK | -0.816
HMGYGEQEAEATKYMSLHAIMSADETLSKMYTPENQHKLMTHVMEQNGIKNVKDYLTPPSELP | -0.102
HMQPRYMLIKTAILDAIERGEMKPGSQVPSENQLAQQHNVSRMTARRALSEMVDDGILMRSQGIGTFVSD | -0.0879
HMHPEITLHPVRANIYSISVKNATSMEIYSVSGQLVGIRELKEGTNTLDLTGYINGVYIVNLQNKAFKLVK | -1.94
HMQTMNKTNISNFEKYLNSGDVSEVIVVRNKSSVRVTLTPEALRSSEHQAVVGKNILGQENIKGPHYQFEV | -0.0672
HMTTIRQQAEVPLSAAGRRFDQALAEMFPAYSRSRLSGWIKAGAATLDGAPAAPRQLLRGGERVELDVELE | -0.0501
HMMTLEESYKLLQVSHNASDIEITKAFKKLALLYHPDKNPSNIDWANKAMASINVAYNTIITHRFKEK | -0.628
HMLFQQPATMIGKIGVAMSDLRPSGKIKIDDEWYDGQSEGDYILKGQEIIVVQVMNAYLIVRL | 0.126
HMDDVIDVYATYDKSAEGVLSNIQLFSNQKKTTPITPESGKIYIDVEGNYQFRWTGTQYATV | -0.111
HMGSKEQELVILNNILERQLQAINLQKSAAGPMVNLRNVHNTLTKLVEAAGLKNVETYFTDPVIGAAQ | 0.0108
HMRKAERHLLIKQVIDEFTIRTQEELLAKLSDYGVNATQATISRDIRDLKIVKAPDENGISRFVFF | -0.964
HMGEDFPYVAYATDSVRLRSKPSSSGDILAVIRQGDAVLITGSDGNYKIVEYEGRKGYVISAFLSQTP | -0.199
HMQMPLTMATMGEVNKIVKVGGNEETRRFLANLGFVAGAEVVVLSKIGGNVIVNVKDSRVAVNEDMARHIM | -0.997
HMPSPEMLKETEKRKAEEIYRSQINLFIDDYHRLKGQYPLLEDIIDNKKDSIPIEILREISISILKNYFE | -0.242
HMDAVQAGKRVLIVDDLIATGGTAKAATDLIEKAGGTVVGFSFVMRLDGLDGLDKLDGKPSSSLIAMP | 0.237
HMIHIGAQEALGEFQDEEGNLTASKKEVVAALVKKSKEVSFPTSYEYEVAARMAADEYNDAGQRMA | -0.0641
HMVRDPYELLEVPREATPDEIKSAFRKLAARHHPDRNPDDPGAQERFKEINAAYQLLSDPQKRAMFDRFGA | 0.169
HMDNIGKTLGQNQTRQYKVAYAEAAKLPAIIMGLVPLPKPPVVDERLRSLYVTATPEQHRQIETLMNRI | 0.11
HMEVAPEKVLEALNELPEIYKIVLNLYAVENMSHKEIAKKLGISLGSSKSRLSRGRVMLNTLLNR | -1.42
HMKVSVDLSMFEDDQTADRNAAVAWVVDELGAGGVDRTILMQLQSTGWSAEQSRAILDLASAGR | -0.208
HMNDAARQTTDILQHVRSSGSISFRDLWRLFMPFMAYRDFDAAVKSLVAAGHIATTENERKELHLIAF | -0.542
HMIQNEITLMLQVNGKLRGQIQVPSDASKEQIEQLAKDSEAAQKALAGASPKKIIVVPGRLVNIV | -0.092
HMGNNKLVLSLAVALKNTPNFLKNYNYKISKDKKFIEILLSKQINEVSDIIINLKKNNINIVDLNIKKR | -1.51
HMEEFAGYINGQPYYGPTHQHRGVKMVGAEHTQRPHPLVWDSVAKSLDNYDNRFQWVNGNLLQVV | 0.0306

Sequence | soluble fraction (log2)
HMTNLTPKQQQIYQFIRASTQANGYPPTLREIGQQVGVRSPSTVKYHLDNLRTLGLLHWDGGKTRSITLP | -0.372
HMGMSENIDKVAGGIPYKVEGNKAIINEPLDDATKERLMGKAKEHGYHAAPNQAGGITITLK | 0.134
HMREYVGLSPFNKEKTPSFYVNDEKGQFFDFSSGKNGDLITFLQETERLTFMEAVERLAAEAGLPMPA | -0.491
HMNTKQRTAVMRILKQSSDPVSADDVFAALKDEYPSLALSTVYRNLERFADESMVKKDVWSDGIVRYSLAD | -0.189
HMVSMSFDDYVNDAKEYESEGDKDKAYNSYLEAYKLNKSSEEVLDYLIDNTEDVTLKLNYVYEYLDL | -0.0996
HMADTIEVVVQVNGKVRAKISTSPEVFADSTKLQELALADANVQKFIAGQTIRKVIIPKGTKLLNIV | -0.227
HMLDKEDNANAGKTLLERELSRAHLSDVEHRELAQRLHLASEQELYIKIGSGDLSIIQALNRAKEFKDT | -0.0156
HMSEYNPGIYRVTDPALNIRTGPGVEYPVVGVIKDQGSYTITEIRNKSWGRLLSGAGSTAIKHIVFT | 0.0941
HMAEAETVKFVGNSLLLVSGAAKGERLSVYTVGGQHVLSADATKPVDVAALHSGVYVVRTTNGVITKIVK | -0.749
HMNTISEADAKRIALERAGLTAADYVKVDYDQDDNEYEVEMRSGNTEYEVKISGSTGAVLEYDSETD | 0.149
HMLTEKEEEVMQILWDNGPLFVREILEFYPDPKPHYNTVSTVIRVLEEKNFASHKAYGNTYQYFP | -0.0146
HMDRTLTYTVSIEESDLRADQFLSRRGFSSHLLTRLRKNMEHLLINGTPSRTNTHLHEGDILTVHIVEE | -0.479
HMGHKTLTVELQEKIENLPQTLDKYNLTLGNNKMSVDYTYSVKEKQTGITNLLQDLKEHKFDIVYLVGQDN | 0.251
HMLSRTYDSSGPDVKIRGTAQTVADKYMSLARDAQSSGDRVMAENYLQHAEHYNRIIAAAQAQ | 0.254
HMEPELLTTKQVASVMNIGEERARAILLSRGVQPVSLPWGKERKTLRWSRRAVMTVIDTLHAEAQAKAGV | -0.582
HMGVAASEVHREKKESSLQWRQSYNVATDQRRQGKTYKEITEFLNGAELKNSKGGTWSISGVRKMLM | 0.271
HMLNPVEKLLLLSQLYIGRLKGSFVVKEKHHKSTILGEVRELSPEEITLKTDEGYRLIRVDDILTIQL | -2.18
HMIPDPEKVMFDGGIRLLTQAGITEGKARSILGKWKRDHETERIIAALGAAQREGAIEPVSFIERVLRN | -0.0153
HMNKRYKVQVTTDNLKIRKGAGTSYPVVGHITDKGTYTIVETSGKWGKLLSGAGWIYLSYTKK | -1.76
HMERVNILEKATKDIPNVEVKAFEGLSVNFARENHAQVIVRGLRAVTDFEYELQMAQTNRVLAPDVDTVF | 0.124
HMHSESAAHQRTSVELFARIPETGNLQSAQRHFDVINQFGRFPHRNKILQRPSSEQEEAFLRQPGSG | 0.0792
HMPEMHIYTKEGKIHITHIDENEEIKIYNPLGQIIYTGSPQDIPVLEGKGLYIIYIGKSAVEVLES | -1.65
HMGRNSTPKEPLKKFEVSPITEKEVRILDGRFGPYITDGATNVTVPKTITIEEITFERALDMLAEKAAKGP | 0.0252
HMNSIDIENELVKIIEKNGQPMSFDDLVFKLDSLYSTRYKFAKGYIRTIILNSNRIASIGKTSTYSLYKWN | -2.25
HMAPRIVTIQIPVDKIRDVIGPGGKVIRSIIERTGVKIDVEDDGRVNVASADGDSAQRAIAIIQELTAT | 0.0444
